From the nanobody polyreactivity screen of Harvey et al. (2022)

Assay: yeast display, Sf9 membrane polyspecificity reagent, FACS + sequencing; frameworks hold sequencing errors
Summary of the method: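 After 36–48 hours of galactose induction, yeast (Saccharomyces cerevisiae BJ5465) displaying a synthetic nanobody library were stained at 4 °C for 1 hour with 10% biotinylated, detergent-solubilized Sf9 membrane reagent. Streptavidin microbeads enriched the stained cells before FACS sorting into low and high (top ~1%) gates on anti-HA and streptavidin fluorescence. Each clone's polyreactivity label reflects its gate of origin.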

Sequence | polyreactivity (PSR sort gate)
QVQLVESGGGLVQAGGSLRLSCAASGLTFWVYTMGWYRQAPGKERELVARITSRGASTYYADSVKGRFTISRDNAKNTVYLQMNSLKPEDTAVYYCATDRYRIYPDYDYWGQGTQVTVSS | high polyreactivity
QVQLVESGGGLVQAGGSLRLSCAASGLTFWYYAMGWYRQAPGKERELVAAISWSGGRTSYADSVKGRFTISRDNAKNTVYLQMNSLKPEDTAVYYCAADKDFRTGEFEYDYWGQGTQLTVSS | high polyreactivity
QVQLVESGGGLVQAGGSLRLSCAASGLTFYFYAMGWYIQAPGKERELVAAIDWGGGSTYYADSVKGRFTISRDYAKNTVYLQMNSLKPEDTAVYYCAARGYYYNYDVNYWGQGTQVTVSS | low polyreactivity
QVQLVESGGGLVQAGGSLRLSCAASGLTFYFYAMGWYRQAPGKERELVAAIDWGGGSTYYADSVKGRFTISRDNAKNTVYLQMNSLKPEDTAVYYCAARGYYYNYDVNYWGQGTQVTVSS | low polyreactivity
QVQLVESGGGLVQAGGSLRLSCAASGLTFYGNAMGWYRQAPGKERELVAAISSSGGTTYYADSVKGRFTISRDNAKNTVYLQMNSLKPEDTAVYYYWGQGTQVTVSS | low polyreactivity
QVQLVESGGGLVQAGGSLRLSCAASGLTFYGNAMGWYRQAPGKERELVAAISSSGGTTYYADSVKGRFTISRDNEKNTVYLQMNSLKPEDTAVYYCNTRNTYFYAGYDYWGQGTQVTVSS | low polyreactivity
QVQLVESGGGLVQAGGSLRLSCAASGLTFYGNAMGWYRQAPGKETELVADISLSGGRTFYADSVKGRFTISRDNAKNTVYLQMNSLKPEDTAVYYCAKTYTSGYHRRYDYWGQGTQVTVSS | low polyreactivity
QVQLVESGGGLVQAGGSLRLSCAASGLTFYGYGMGWYRPGPGKERELVASITSGGNTYYADSVKGRFTISRDNAKNNVYLQMYSLKPEDNAVSYCAVTAIALYYSSGYYWGQGTQVTVSS | low polyreactivity
QVQLVESGGGLVQAGGSLRLSCAASGLTFYGYTMGWSRQAPGKERELVAAISWSGGNTYYADSVKGRFTISRDNEKNTVYLQMNSLKPEDTAVYYCAAEHWTYDWVDYWGQGTQVTVSS | low polyreactivity
QVQLVESGGGLVQAGGSLRLSCAASGLTFYHVNAMGWYRQAPGKERELVAGISTRGGSTYYADSVKGRFTISRDNAKNTVYLQMNSLKPEDTAVYYCAAYGSAAQKYPYDRPYRYGYWGQGTQVTVSS | high polyreactivity
QVQLVESGGGLVQAGGSLRLSCAASGLTFYHYAMGSYRQAPGKERELVAAITTIGGSTNYADSVKGRFTISRDNAKNTVYLQMNSLKPADNAVYYCAKKLTDAQASSHYDYWGQGTQVTVSS | low polyreactivity
QVQLVESGGGLVQAGGSLRLSCAASGLTFYIYAMGWYRQAPGKERELVASITWSTTSTSYADSVKGRFTISRDNAKNTVYLQLKSLKPEDTAVYYCNADVPGYFLYDDSYEYWGQGTQVTVSS | low polyreactivity
QVQLVESGGGLVQAGGSLRLSCAASGLTFYKNAMGWYRQAPGKERELVAVISSSGGSTYYADSVKGRFTISRDNAKNTVYLQMYSLKPEDSAVYYFARDLYTEYRWGRLTYDYRGQGTQVTVSS | low polyreactivity
QVQLVESGGGLVQAGGSLRLSCAASGLTFYLYAMGWYRQAPGKERELVAAISRSGGSTYYADSVKGRFTISRDNAKNTVYLQMNSLKPEDTAVYYCAAVTYYPEIRKYYYWGQGTQVTVSS | high polyreactivity
QVQLVESGGGLVQAGGSLRLSCAASGLTFYRNAMGWYRQAPGKERELVAAITKSGARTYYAVSVKGRFTISRDNAKNTVYLQMNSLKPEDTAVYYCAADALNTYYYWGQGTQVTVSS | high polyreactivity
QVQLVESGGGLVQAGGSLRLSCAASGLTFYSNSMGWYRPAPGKERELVAVISADGASTYYADSVKGRFTISRDNAKNTVYLQMNSLKPEDTAVYYCAARVSARGKGYYWGQGTQVTVSS | high polyreactivity
QVQLVESGGGLVQAGGSLRLSCAASGLTFYTNAMGWYRQAPGKERELVAAITSSGGRTYYADSVKGRFTISRDNAKNTVYLQMNILKPEDTAVYYCAADALRPRIPEMYYWGQGTQVTVSS | high polyreactivity
QVQLVESGGGLVQAGGSLRLSCAASGLTFYTYPMGWYRQAPGKERELVAAISSSTGSTYYADSVKGRFTISRDNAKNTVYLQMNSLKPEDSAVYYCAAESYWGVNYWGQGTQVTVSS | high polyreactivity
QVQLVESGGGLVQAGGSLRLSCAASGLTFYVYTMGWYRQAPGKERELVAVISSGDSTYYADSVKGRFTISRDNAKNTVYLQMNSLKPEDTAVYYCAAGTHYRIVRYGLYDYWGQGTQVTVSS | low polyreactivity
QVQLVESGGGLVQAGGSLRLSCAASGLTFYVYTMGWYRQEPGKERELVAAITGSGGSTFYADSVKGRFTISRDNAKNTVFIQMNSLKREDTAVYYCAAYYYMSDGYDYWGQGTQVTVSS | low polyreactivity
QVQLVESGGGLVQAGGSLRLSCAASGLTFYWNAMGWYRQAPGKERELVASISQSSGNTYYADSVKGRFTISRDNAKNTVYFQMNSLKPEDTAVYYCAARNRPSLNRYYYWGQGTQVNVSS | low polyreactivity
QVQLVESGGGLVQAGGSLRLSCAASGLTFYYNAMGWYRQAPGKERELVAAISRSGGSTYYADSVKGRFTISRDNAKNTVYLQMNSLEPEDTAVYYCAAALRKEYDYWGQGTQVTVSS | high polyreactivity

Sequence | polyreactivity (PSR sort gate)
QVQLVESGGGLVQAGGSLRLSCAASGLTFYYNAMGWYRQAPGKERELVAAITRGTSTHYADSVKWRFTISRDNAKNTVYLQMNSLKPEDTAVYYCAAPYRYSWWRGDYWGQGTQVTVSS | high polyreactivity
QVQLVESGGGLVQAGGSLRLSCAASGLTFYYYAMGWSRQAPGKERELVAAISRSGGSTYYADSVKGRFTISRDNAKNTVYLQINSLKPEDTAVYYCAAREPYEGQRYYYEYYYWGQGTQVTVSS | high polyreactivity
QVQLVESGGGLVQAGGSLRLSCAASGLTFYYYAMGWYRQAPGKERELVASINRSSGSTYYADSVKGRFTISRDNAKNTVYLQMNSLKPEDTAVYYCAVKKHWPHPAYTRYYKYYYWGQGTQVTVSS | high polyreactivity
QVQLVESGGGLVQAGGSLRLSCAASGLTFYYYAMGWYSQPPGKERELVAAISIGGSTDYADSVKGRFTISRDNAKNTVYLQMNSLKPEDTAVYYCNVDDNSEYEYWGQGTQVTVSS | low polyreactivity
QVQLVESGGGLVQAGGSLRLSCAASGLTFYYYTMGWYRQAPGKERELVATISRSGTSTNYADSVKGRFTISRDNAKNTVYLQMNSLKPEDTAVYYCAAVLRWRDLFSEYYYWGQGTQVTVSS | high polyreactivity
QVQLVESGGGLVQAGGSLRLSCAASGLTIDYYTMGWYRQAPGKERELVAAINWSGGRTYYADSVKGRFTISRDHAKNTVYLQMNSLKPEDTAVYYCAADTYRRHDDDYWGQGTQVTVSS | high polyreactivity
QVQLVESGGGLVQAGGSLRLSCAASGLTIFRNAMGWYRQAPGKEREFVAGITSTDGSTYYADSVKGRFTISRDNAKNTVYLQMNSLKPEDTAVYYCAAAYRVRGRTYDSWGQGTQVTVSS | high polyreactivity
QVQLVESGGGLVQAGGSLRLSCAASGLTIFVNAMGWYRQAPGKERELVATISCGGSTYYADSVKGRFTISRDNANNTVYLQLNSLKPEDSSVFYCNAADVGGQWWYPYTYNYWGQGTQVTVSS | low polyreactivity
QVQLVESGGGLVQAGGSLRLSCAASGLTIWRYAMGWYRQAPGKEREFVATISQNGGRTYYADSVKGRFTISRDNAKNTVYLQMNSLKPEVNAVYYCAADDWRWGYDYWGQGTQVTVSS | high polyreactivity
QVQLVESGGGLVQAGGSLRLSCAASGLTLDQYPMGWYRPAPGKEREFVAAISYSGGNTYYADSVKGRFTISRYNAKNTVYLQMNSLKPEETAVYYCAAYYYYFYHKVIWYELDYWGHGTQVTVSS | low polyreactivity
QVQLVESGGGLVQAGGSLRLSCAASGLTLGRYAKGWYRQAPGKARELVAVITGGGSTNYADSVKGRFTISRDNAKNTVYLQMNTLKTEDTAVYFCAVRGGIFQTLSTWYRYYYWGQGTQVTVSS | high polyreactivity
QVQLVESGGGLVQAGGSLRLSCAASGLTLGRYARGWYRQAPGKERELVAVITGGGSTNYADSVKGRFTISRDNSKNTVYLQMNSLKPEDTAVYYCAAARSPYKYSYWGQGTQVTVSS | high polyreactivity
QVQLVESGGGLVQAGGSLRLSCAASGLTLGSYTMGWYRQAPGKERELVAAIRKRGSSSYYADSVKGRFTISRDNAKNTVYLQMISQKPEDTAVYYCATDVASYWYRFFWRYGYWGQGTQVTVSS | low polyreactivity
QVQLVESGGGLVQAGGSLRLSCAASGLTLKRNAMGWYRQAPGKERELVAAISGRGGSTYYADSVKGRFTISRDNAKNTVYLQMNSLKPEVTAVYYCAATVQYSPIYDYWGQGTQVTVSS | high polyreactivity
QVQLVESGGGLVQAGGSLRLSCAASGLTLRNYAMGWYRQAPGKERELVAAITTGGGRTYYADSVKGRFTISRDNAKNTVYFQMNSVKPEDTAVYYCAADAPREYVDHYKYDDDYWGQGTQVTVSS | low polyreactivity
QVQLVESGGGLVQAGGSLRLSCAASGLTLTWNAMGWYRQAPGKERELVAAITGSGGRTNYADSVKGRFTISRDNAKNTVYLQMNSLKPEDTAVYYCASFRWYHWGTRYDYWGQGTQVTVSS | high polyreactivity
QVQLVESGGGLVQAGGSLRLSCAASGLTLTYYAMGWYRQAAGKERELVAAISSSGGSTYYADSVKGRFTISRDNAKNTVYLQMNSLKPEDTAVYYCAATRVSWTGRDDYWGQGTQVTVSS | high polyreactivity
QVQLVESGGGLVQAGGSLRLSCAASGLTLWTYAMGWYIQAPGQERELVARIRSGGSTYYADSVKGRFTISRDNAKNTVYLQMNSLKPEDTAVYYCAADLQSRVDYWGQGTQVTVSS | high polyreactivity
QVQLVESGGGLVQAGGSLRLSCAASGLTLYFYVMGWYRQAPGKERELVAAISSTGSTYYADSVKGRFSISRDNAKNTVYLQMNSLKPEDTAVYYCAARKRGWYGYWGQGTQVTVSS | high polyreactivity
QVQLVESGGGLVQAGGSLRLSCAASGLTLYKNGMGWYRQAPGKERELVAVISRSGGRTYYADSVKGRFTISRDNAKNTVYLQMNSLKPEDTAVYYCAARQYGPRYTYYYWGQGTQVTVSS | high polyreactivity
QVQLVESGGGLVQAGGSLRLSCAASGLTLYKNGMGWYRQAPGKERELVAVISRSGGRTYYAESVKGRFTISRDNAKNTVYLQMNSLKPEDTSVYYCAKRYGYTEYYYWGQGTQVTVSS | high polyreactivity
